Results on 2 molecules are retold here after article PMC10126257, “Genome resequencing and transcriptome analysis reveal the molecular mechanism of albinism in Cordyceps militaris”.

Series [1] concerns the target T1, CmWC-3 (zinc-finger domain-containing protein, GATA-type) (Cordyceps militaris, UniProt G3J672 1-188).
T1 sequence: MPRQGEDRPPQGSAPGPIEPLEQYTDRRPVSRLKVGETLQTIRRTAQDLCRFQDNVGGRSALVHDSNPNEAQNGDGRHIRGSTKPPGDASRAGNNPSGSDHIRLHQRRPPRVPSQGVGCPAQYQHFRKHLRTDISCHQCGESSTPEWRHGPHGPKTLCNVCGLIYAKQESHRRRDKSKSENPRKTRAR
Briefly: EMSA; LightShift EMSA Kit (Thermo 20148); cold competitor 50x; proteins recovered in 1x PBS; binding buffer, salt, pH and temperature not stated. As to conditions: protein: recombinant; tags: GST (pGEX-6P-1); label: biotin on both strands (5'); blunt. Background: In EMSA bound probe runs differently from free probe, usually more slowly.

Series [2] addresses T2, CmWC-1 (white collar-1) (Cordyceps militaris, UniProt G3J3J5 1-963).
T2 sequence: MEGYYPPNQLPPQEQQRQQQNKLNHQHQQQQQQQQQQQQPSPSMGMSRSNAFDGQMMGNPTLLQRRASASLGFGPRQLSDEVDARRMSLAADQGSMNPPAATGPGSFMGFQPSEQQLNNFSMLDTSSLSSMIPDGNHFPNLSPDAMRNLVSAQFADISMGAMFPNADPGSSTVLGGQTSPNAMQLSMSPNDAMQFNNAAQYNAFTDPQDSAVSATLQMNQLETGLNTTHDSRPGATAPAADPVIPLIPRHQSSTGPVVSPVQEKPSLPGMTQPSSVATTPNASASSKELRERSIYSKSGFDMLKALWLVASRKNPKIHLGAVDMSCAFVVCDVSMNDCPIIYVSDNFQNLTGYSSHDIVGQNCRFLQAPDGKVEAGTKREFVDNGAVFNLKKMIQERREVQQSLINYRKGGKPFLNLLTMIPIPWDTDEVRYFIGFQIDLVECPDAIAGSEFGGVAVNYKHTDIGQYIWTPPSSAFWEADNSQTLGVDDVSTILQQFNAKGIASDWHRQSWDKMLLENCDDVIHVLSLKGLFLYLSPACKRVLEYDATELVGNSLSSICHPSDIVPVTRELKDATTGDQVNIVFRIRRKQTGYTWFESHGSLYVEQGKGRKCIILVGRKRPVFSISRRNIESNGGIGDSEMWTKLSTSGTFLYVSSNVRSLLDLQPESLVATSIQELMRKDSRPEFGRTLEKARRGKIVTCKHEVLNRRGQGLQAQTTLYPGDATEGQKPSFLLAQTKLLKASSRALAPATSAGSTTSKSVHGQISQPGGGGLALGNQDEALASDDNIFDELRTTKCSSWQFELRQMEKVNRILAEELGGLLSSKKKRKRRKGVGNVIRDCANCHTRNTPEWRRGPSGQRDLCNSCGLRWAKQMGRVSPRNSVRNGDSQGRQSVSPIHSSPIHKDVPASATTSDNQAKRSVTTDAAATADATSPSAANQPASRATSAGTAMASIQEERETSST
The series is described as above. As to conditions: protein: recombinant; tags: His (pCOLD I); label: biotin on both strands (5'); blunt.

B1: CmPKS promoter P1 probe (dsDNA)
DNA 1: TCATATGATTGTTGATAAATATGTTTTCCCAGTGA
DNA 2: TCACTGGGAAAACATATTTATCAACAATCATATGA
On to B1, for which the binding result in series [1] is listed as “binds”; in series [2] it was “no binding”.

B2: CmPKS promoter P2 probe (dsDNA)
DNA 1: CGCAGCTGAGGGTATTGATAGCCGTGATCGAACCC
DNA 2: GGGTTCGATCACGGCTATCAATACCCTCAGCTGCG
Consider B2, for which the binding result in series [1] is “binds”; in series [2], “no binding”.
